Earlier results on 1 substance are cited in PMC10935721.

The test system of the data set is Tyr32. The conditions noted are these: reduced (non-radical) X32.

With “α3Y (de novo three-helix bundle with Tyr32) (synthetic construct (de novo designed))”, the pKa was 11.3 (±0.1).
